We go through two molecules from US12221480.

The target in assay [1] is Vδ3 γδ TCR on the surface of human Vδ3 γδ T cells (PBMC-derived, expanded cultures) (human) (UniProt A0JD37). The experiment in a line: cell-based or functional assay.
The target in assay [2] is γ2δ3 TCR-hFc mutant S4 (E18Q in the Vδ3 chain) (human) (UniProt B7Z8K6). The assay is described as follows: Luminex beads; TCR-hFc captured by goat anti-human Fc; antibody titrated.
For assay [3], the target named is γ2δ3 TCR-hFc mutant S9 (E67Q, D70N, R75Q, R95Q, E97Q in the Vδ3 chain) (human) (UniProt B7Z8K6). The assay is described as above.
The target of assay [4] is recombinant human soluble γ2 δ3TCR-FC (wild type) (human) (UniProt B7Z8K6). The description is as above.
Assay [5] concerns the target γ2δ3 TCR-hFc mutant S6 (R75Q, R95Q in the Vδ3 chain) (human) (UniProt B7Z8K6). The assay is described as above.
Assay [6] concerns the target γ2δ3 TCR-hFc mutant S5 (D70N, E67Q in the Vδ3 chain) (human) (UniProt B7Z8K6). Described as above.
Assay [7] has as its target γ2δ3 TCR-hFc mutant S7 (D57N, R65Q in the Vδ3 chain) (human) (UniProt B7Z8K6). The description is as above.
Assay [8] deals with γ2δ3 TCR-hFc mutant S1 (D10N in the Vδ3 chain) (human) (UniProt B7Z8K6). The description is as above.
Assay [9] has as its target γ2δ3 TCR-hFc mutant S2 (D26N, K85L in the Vδ3 chain) (human) (UniProt B7Z8K6). The assay is described as above.
The target of assay [10] is Vδ3 γδ TCR on the surface of human Vδ3 γδ T cells (PBMC-derived, expanded cultures) (human) (UniProt A0JD37). The experiment in a line: flow cytometry, upper right panel (δ3-08 Expansion): untransduced Donor 4 cells after αβ T cell depletion, δ3-23 MAb staining (x axis) against anti-TCRαβ (y axis); the gated population lies between about 10^4 and 10^5 on the δ3-23 axis; no % sign is printed. Background: A flow cytometer gives signals particle by particle.

Assay [11] shares this target. The experiment in a line: flow cytometry on expanded, αβ T cell depleted γδ T cells of Donor 4.
Assay [12] addresses recombinant human soluble γ2 δ3TCR-FC (wild type) (human) (UniProt B7Z8K6). The assay is described as follows: Octet, γ2δ3TCR-hFc captured on anti-human Fc biosensor; row antibody δ3-42 taken as first (saturating), column antibody as second; 5 µg/mL each.
The target in assay [13] is Vδ3 γδ TCR on the surface of human Vδ3 γδ T cells (PBMC-derived, expanded cultures) (human) (UniProt A0JD37). The experiment in a line: flow cytometry, lower right panel (δ3-23 Expansion): untransduced Donor 4 cells after αβ T cell depletion, δ3-23 MAb staining (x axis) against anti-TCRαβ (y axis); the gated population lies between about 10^4 and 10^5 on the δ3-23 axis; no % sign is printed.

Assay [14] deals with recombinant human soluble γ2 δ3TCR-FC (wild type) (human) (UniProt B7Z8K6). The assay is described as follows: Octet, γ2δ3TCR-hFc captured on anti-human Fc biosensor; row antibody δ3-58 taken as first (saturating), column antibody as second; 5 µg/mL each.
For assay [15] the target is unchanged. The assay is described as follows: Octet, γ2δ3TCR-hFc captured on anti-human Fc biosensor; row antibody δ3-23 taken as first (saturating), column antibody as second; 5 µg/mL each; self pair. For orientation: In BLI a coated tip is dipped into the sample, and binding shifts an interference pattern.
Assay [16] shares this target. The assay is described as follows: Octet, γ2δ3TCR-hFc captured on anti-human Fc biosensor; row antibody δ3-31 taken as first (saturating), column antibody as second; 5 µg/mL each.
Assay [17] shares this target. The experiment in a line: Octet, γ2δ3TCR-hFc captured on anti-human Fc biosensor; row antibody δ3-08 taken as first (saturating), column antibody as second; 5 µg/mL each.
Assay [18] has as its target γ2δ3 TCR-hFc mutant S10 (K3A, K79L, H88T in the Vδ3 chain) (human) (UniProt B7Z8K6). The experiment in a line: Luminex beads; TCR-hFc captured by goat anti-human Fc; antibody titrated; extrapolated value, no saturation achieved.
For assay [19], the target named is γ2δ3 TCR-hFc mutant S3 (K79L, H88F in the Vδ3 chain) (human) (UniProt B7Z8K6). The assay is described as above.
The target of assay [20] is γ2δ3 TCR-hFc mutant S11 (K79L, L82K, H88F in the Vδ3 chain) (human) (UniProt B7Z8K6). Described as above.
The target of assay [21] is γ2δ3 TCR-hFc mutant S8 (K79L, E18Q, H88F in the Vδ3 chain) (human) (UniProt B7Z8K6). The description is as above.
The target in assay [22] is γ2δ3 TCR-hFc mutant S10 (K3A, K79L, H88T in the Vδ3 chain) (human) (UniProt B7Z8K6). The assay is described as follows: Luminex beads; TCR-hFc captured by goat anti-human Fc; antibody titrated.
Assay [23] has as its target γ2δ3 TCR-hFc mutant S3 (K79L, H88F in the Vδ3 chain) (human) (UniProt B7Z8K6). The assay is described as above.
Assay [24] addresses γ2δ3 TCR-hFc mutant S11 (K79L, L82K, H88F in the Vδ3 chain) (human) (UniProt B7Z8K6). Described as above.
Assay [25] has as its target γ2δ3 TCR-hFc mutant S8 (K79L, E18Q, H88F in the Vδ3 chain) (human) (UniProt B7Z8K6). The description is as above.
Assay [26] concerns the target recombinant human soluble γ2 δ3TCR-FC (wild type) (human) (UniProt B7Z8K6). The experiment in a line: Octet, γ2δ3TCR-hFc captured on anti-human Fc biosensor; row antibody δ3-31 taken as first (saturating), column antibody as second; 5 µg/mL each; self pair.
Assay [27] has the same target. The assay is described as follows: Octet, γ2δ3TCR-hFc captured on anti-human Fc biosensor; row antibody δ3-23 taken as first (saturating), column antibody as second; 5 µg/mL each.
In assay [28] the target is γ2δ3 TCR-hFc mutant S9 (E67Q, D70N, R75Q, R95Q, E97Q in the Vδ3 chain) (human) (UniProt B7Z8K6). The experiment in a line: Luminex beads; TCR-hFc captured by goat anti-human Fc; antibody titrated; extrapolated value, no saturation achieved.
Assay [29] addresses γ2δ3 TCR-hFc mutant S6 (R75Q, R95Q in the Vδ3 chain) (human) (UniProt B7Z8K6). The assay is described as above.

Chain of UniProt A0JD37 (A0JD37 19-113, stated change not applied): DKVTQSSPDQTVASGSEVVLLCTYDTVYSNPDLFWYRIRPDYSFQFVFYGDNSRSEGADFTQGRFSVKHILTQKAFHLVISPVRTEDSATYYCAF

B1: δ3-23 (antibody, V domains shown)
VH: EVQLQQSGAELVKPGASVKLSCTASGFNIRDTYMHWVKQRPEQGLEWIGRIDPANGNTKYDPKFRGKATITADTSSNTAYLQLSSLTSEGTAVYYCSEGIYFDYWGQGTTLTVSS
VL: DILLTQSPAILSVSPGERVSFSCRASQNIGTIIHWYQQRANGSPRLLIKYASESISGIPSRFSGSGSGTDFTLSINSVESEDIADYYCQQSNSWPYTFGGGTKLEIKR
For B1, the share of non-Vδ1/non-Vδ2 γδ T cells in the culture on Day 21, Donor 1 in [1] is under 41%. Further, the EC50 (in general, the concentration giving half of the maximal effect) was found to be 0.06 nM in assay [2]; 0.05 nM in assay [3]; 0.04 nM in assay [4]; 0.04 nM in assay [5]; 0.04 nM in assay [6]; 0.04 nM in assay [7]. The EC50 in assay [8] is 0.04 nM; in [9], 0.04 nM; in [18] it was 117 nM; in assay [19] it was 137 nM; in [20], 112 nM; in [21], 95.8 nM. The figures for the percent of cells in the Vd3+ gate in assay [10] and in assay [13] were 95.5% and 95%, respectively. Further, in assay [11], the % of non-Vδ1/non-Vδ2 cells stained positive is over 95%. Besides, the paired-competition value (Octet signal of the second antibody per paragraph 256) amounted to 0.12 in [12]; 0.07 in assay [14]; 0.06 in [15]; 0.48 in assay [16]; 0.29 in assay [17].

B2: δ3-31 (antibody, V domains shown)
VH: DVQLQESGPDLVKPSQSLSLTCTVTGYSITSGYGWHWIRQFPGNKLEWMGYISFSGSNKYNPSLKSRISITRDTSKNQFFLQLNSVTTEDTATYYCANLDYWGQGTTLTVSS
VL: DIQMTQRTSSLSASLGDRVTISCSASQDITNYLHWFQQKPDGTVKLLIYYTSTLHSGVPSRFSGSGSGTDYSLTISNLEPEDIATYYCQQYSKLPYTFGGGTKLEITR
Regarding B2, the EC50 is 0.05 nM in assay [2]; 0.08 nM in assay [22]; 0.05 nM in assay [23]; 0.05 nM in assay [4]; 0.06 nM in [24]; 4.99 nM in assay [6]. Further, the EC50 in assay [7] was 0.05 nM; in assay [8], 0.06 nM; in assay [25] it was 0.06 nM; in [9], 0.05 nM; in assay [28] it was 37.7 nM; in [29] it was 44.4 nM. Further, the paired-competition value (Octet signal of the second antibody per paragraph 256) in assay [26] was 0.07; in assay [27], 0.4; in [12], 0.37; in [14] it was 0.38; in assay [17], 0.44.
